These results are taken from publication PMC3637433 (The FEBS journal, 2013).

In test [1] the target is CCR5 N-terminal peptide (Nt-CCR5) N-terminus (Homo sapiens) (UniProt P51681). The note with it: cited from earlier work.
The target in test [2] is RANTES (E66S mutant of human RANTES) (human). In words: 1H-15N-HSQC, intensities of monomer and dimer cross-peaks.
The target is the same in test [3]. The test is described as above. This is another data set of the same source.
Test [4] has the same target. Described as above. The source holds these as a separate data set.
For test [5] the target is unchanged. The description is as above. This is another data set of the same source.
Test [6] has the same target. The description is as above. This is another data set of the same source.
The next test addresses T1, RANTES (Homo sapiens, UniProt P13501, E89S).
T1 sequence (P13501 24-91 E89S): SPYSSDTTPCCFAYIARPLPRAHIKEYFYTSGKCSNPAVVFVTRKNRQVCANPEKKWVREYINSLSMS
In words: 1H-15N-HSQC NMR titration of U-15N-RANTES. The conditions noted are these: 293 K, pH 4.8; peptide up to 2.9 mM, 64 molar excess relative to RANTES; KD could not be extracted. The class given is binding.

Test [7] has as its target RANTES (E66S mutant of human RANTES) (human). In words: NMR titration.
For test [8] the target is unchanged. The test is described as follows: NMR titration. This is another data set of the same source.
Test [9] has the same target. In words: NMR titration. The source holds these as a separate data set.

Like-named read-outs stand apart in the source and are kept apart here. Square brackets hold non-standard residues; d marks the D form. Ends that are not written are not given here. sY = N[C@@H](Cc1ccc(OS(=O)(=O)O)cc1)C(=O)O

Sequence of CCR5 N-terminal peptide (Nt-CCR5) N-terminus (Homo sapiens) (P51681 1-27): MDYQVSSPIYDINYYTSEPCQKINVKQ

Usually Kd stands for the equilibrium constant for the complex coming apart. As for RANTES (from UniProt P13501), the Kd in [1] is 1 µM.
In general, stoichiometry N refers to a count of units in the complex or per binding partner. Take “RANTES (E66S mutant of human RANTES) (ligand)”: the ratio of monomer/dimer peak intensities, IM/ID in [2] was 0.13; in test [3], 0.45; in [4], 1.57; in test [5], 0.2; in test [6], < 0.1. Moreover, the stoichiometry N in test [3] is 2.
Turning to TRSQKEGLHYTSSSHFPYSQYQ [ECL2], the “Saturation of RANTES chemical shift changes on titration” value at RANTES is on record as “saturation was not achieved”.
Consider MDYQVSSPI[sY]DIN[sY]YTSEPAQKINVKQ [Nt-CCR5 peptide (CCR5 residues 1-27), sulfated at Y10 and Y14], for which the results for the dissociation constant Kd in test [7], in test [8] and in [9] were 100 µM, 84 µM and 16 µM, respectively.
